Measured values as given in patent publication US20110142851A1 (EMERGENT PRODUCT DEVELOPMENT SEATTLE, published 2011).

Tests used:
recombinant human IL6 [1] = biological target: T1, recombinant human IL6 (human, UniProt P05231 30-212); assay: SPR Biacore, mAb captured by anti-mouse Fc, single cycle kinetics
T1 construct: also called rhIL6; IL6 monomer

Hyper-IL6 [2] = biological target: T2, Hyper-IL6 (human); assay: SPR Biacore, mAb captured by anti-mouse Fc, HIL6 injected
T2 chain: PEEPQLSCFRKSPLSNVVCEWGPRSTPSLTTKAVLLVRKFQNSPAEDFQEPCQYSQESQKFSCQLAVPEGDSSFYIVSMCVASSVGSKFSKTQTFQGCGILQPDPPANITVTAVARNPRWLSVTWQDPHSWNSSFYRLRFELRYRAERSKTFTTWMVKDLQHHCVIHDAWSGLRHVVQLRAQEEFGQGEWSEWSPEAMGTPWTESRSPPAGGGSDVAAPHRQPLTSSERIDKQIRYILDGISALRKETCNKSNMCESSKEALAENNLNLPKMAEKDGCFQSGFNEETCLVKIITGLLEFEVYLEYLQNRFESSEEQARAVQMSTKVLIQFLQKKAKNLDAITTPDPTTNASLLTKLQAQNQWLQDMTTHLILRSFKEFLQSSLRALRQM

recombinant human IL6 [3] = biological target: T1, recombinant human IL6; assay: SPR Biacore T100, binder captured by anti-human Fc
sIL6R Fc dimer = biological target: T3, sIL6R Fc dimer (UniProt P08887 20-358, limits assumed); assay: SPR Biacore T100, binder captured by anti-human Fc
T3 construct: not shown: Fc
T3 sequence (looked up): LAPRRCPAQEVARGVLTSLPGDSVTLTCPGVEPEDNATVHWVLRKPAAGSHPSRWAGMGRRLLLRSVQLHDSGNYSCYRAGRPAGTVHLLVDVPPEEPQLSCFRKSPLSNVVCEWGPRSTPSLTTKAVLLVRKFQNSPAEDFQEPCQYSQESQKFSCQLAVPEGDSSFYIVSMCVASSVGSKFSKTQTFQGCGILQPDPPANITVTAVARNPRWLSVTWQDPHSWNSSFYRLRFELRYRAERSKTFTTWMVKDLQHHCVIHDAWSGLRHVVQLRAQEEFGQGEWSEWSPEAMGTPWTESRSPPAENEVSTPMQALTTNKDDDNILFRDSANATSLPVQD

[4] = biological target: T4, hu HIL6 Fc dimer (dimeric human HIL6/mouse IgG Fc fusion protein) (human); assay: SPR Biacore T100, binder captured by anti-human Fc
T4 construct: also called human hyper-IL6 (IL6R-IL6-mIgG); dimeric HIL6
T4 chain: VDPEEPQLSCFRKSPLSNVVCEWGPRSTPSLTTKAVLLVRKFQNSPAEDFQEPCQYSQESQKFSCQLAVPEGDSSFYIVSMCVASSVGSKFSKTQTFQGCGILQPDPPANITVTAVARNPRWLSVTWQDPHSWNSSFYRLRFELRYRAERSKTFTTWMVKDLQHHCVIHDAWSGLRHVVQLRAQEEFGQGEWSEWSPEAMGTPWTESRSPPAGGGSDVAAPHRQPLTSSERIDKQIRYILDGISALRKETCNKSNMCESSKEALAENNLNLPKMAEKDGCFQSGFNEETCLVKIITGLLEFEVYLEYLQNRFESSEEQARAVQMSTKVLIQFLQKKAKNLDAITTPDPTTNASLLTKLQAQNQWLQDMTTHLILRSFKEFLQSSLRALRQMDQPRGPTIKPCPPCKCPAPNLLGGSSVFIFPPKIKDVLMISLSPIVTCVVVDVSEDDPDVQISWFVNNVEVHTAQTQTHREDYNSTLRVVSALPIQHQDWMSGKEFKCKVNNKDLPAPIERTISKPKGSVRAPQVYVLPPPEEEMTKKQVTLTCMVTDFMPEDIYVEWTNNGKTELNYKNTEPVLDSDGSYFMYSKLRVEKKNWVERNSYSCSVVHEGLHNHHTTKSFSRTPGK

hu HIL6 AFH monomer = biological target: T5, hu HIL6 AFH monomer (human); assay: SPR Biacore T100, binder captured by anti-human Fc
T5 chain: T2 chain

Hyper-IL6 [5] = biological target: T2, Hyper-IL6; assay: SPR Biacore, binder captured by anti-human Fc, HIL6 injected
Procedure: (§1) Anti-IL6 binding domains were captured using immobilized anti-mouse Fc polyclonal antibody in the case of anti-IL6 antibodies, or an anti-human Fc monoclonal in the case of SMIPs, Xceptors, and humanized SMIPs. IL6 binding to the anti-IL6 binding domains was studied using single cycle kinetics. Five sequential injections of IL6 were made per cycle starting with the lowest concentration of IL6 (6.4 pM) and progressing to the highest concentration (4,000 pM). The flow rate was 45 μL per minute and each injection of IL6 lasted 7 minutes. At the end of the highest IL6 concentration injection, IL6 was allowed to dissociate for 30 minutes. The data were fit to a one-to-one binding single cycle kinetics model. HIL6 binding was studied by injecting a single concentration of HIL6 (from 6.4-4,000 pM) per cycle for 7 minutes, and then allowing the bound HIL6 to dissociate for either 30 seconds (0 to 800 pM) or one hour (0 and 4,000 pM). […] All analysis was performed using BIAevaluation software.

recombinant human IL6 [6] = biological target: T1, recombinant human IL6; assay: SPR Biacore, binder captured by anti-human Fc, single cycle kinetics
Procedure: as §1

B1: BSF2-77 mAb (antibody, V domains shown)
VH: QVQLQQPGAELVKPGASVKLSCKASGYIFTSYWMHWVKQRPGQGLEWIGEINPSNGRTNYNERFKSKATLTVDKSSSTAYIQLSSLTSDDSAVYYCSRSDTKATCDYWGQGTTLTVSS
VL: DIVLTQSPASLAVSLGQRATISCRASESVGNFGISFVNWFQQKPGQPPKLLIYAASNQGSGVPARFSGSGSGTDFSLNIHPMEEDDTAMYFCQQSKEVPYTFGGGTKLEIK
Kd (recombinant human IL6 [1]): 0.41 nM | koff (recombinant human IL6 [1]): 0.002 s⁻¹ | kon (recombinant human IL6 [1]): 4.8e+06 M⁻¹ s⁻¹ | Kd (Hyper-IL6 [2]): 0.444 nM | koff (Hyper-IL6 [2]): 0.00096 s⁻¹ | kon (Hyper-IL6 [2]): 2.2e+06 M⁻¹ s⁻¹

B2: CLB-8 mAb (antibody, V domains shown)
VH: EVQLVESGGKLLKPGGSLKLSCAASGFTFSSFAMSWFRQSPEKRLEWVAEISSGGSYTYYPDTVTGRFTISRDNAKNTLYLEMSSLRSEDTAMYYCARGLWGYYALDYWGQGTSVTVSS
VL: QIVLIQSPAIMSASPGEKVTMTCSASSSVSYMYWYQQKPGSSPRLLIYDTSNLASGVPVRFSGSGSGTSYSLTISRMEAEDAATYYCQQWSGYPYTFGGGTKLEIKR
Kd (recombinant human IL6 [1]): 0.022 nM | koff (recombinant human IL6 [1]): 5e-05 s⁻¹ | kon (recombinant human IL6 [1]): 2.3e+06 M⁻¹ s⁻¹

B3: TRU(XT6)-1013 (Fc fusion)
chain: LPAQVAFTPYAPEPGSTCRLREYYDQTAQMCCSKCSPGQHAKVFCTKTSDTVCDSCEDSTYTQLWNWVPECLSCGSRCSSDQVETQACTREQNRICTCRPGWYCALSKQEGCRLCAPLRKCRPGFGVARPGTETSDVVCKPCAPGTFSNTTSSTDICRPHQICNVVAIPGNASMDAVCTSTSPTRSMAPGAVHLPQPVSTRSQHTQPTPEPSTAPSTSFLLPMGPSPPAEGSTGDTGEPKSSDKTHTCPPCPAPEAAGAPSVFLFPPKPKDTLMISRTPEVTCVVVDVSHEDPEVKFNWYVDGVEVHNAKTKPREEQYNSTYRVVSVLTVLHQDWLNGKAYACAVSNKALPAPIEKTISKAKGQPREPQVYTLPPSRDELTKNQVSLTCLVKGFYPSDIAVEWESNGQPENNYKTTPPVLDSDGSFFLYSKLTVDKSRWQQGNVFSCSVMHEALHNHYTQKSLSLSPGQRHNNSSLNTRTQKARHSPNSEVQLLESGGGLVQPGGSLRLSCAASGFTFSGYVMGWVRQAPGKGLEWVSSISPSGGYTLYADSVKGRFTISRDNSKNTLYLQMNSLRAEDTAVYYCARAFSTRWYWGAFDIWGQGTMVTVSSGGGGSGGGGSGGGGSQDIQMTQSPATLSLSPGERATLSCRASQSVRSYLAWYQQKPGQAPRLLIYDASNRATGIPARFSGSGSGTDFTLTITSLQPEDIATYYCQQYDNLPLTFGGGTKVEIK
notes: Xceptor, TNFRSF1B ectodomain N-terminal, anti-IL6xR domain C-terminal
binding result (recombinant human IL6 [3]): no binding (tested: 100 nM) | binding result (sIL6R Fc dimer): no binding (tested: 100 nM) | Kd [4]: 270 nM | Kd (hu HIL6 AFH monomer): 190 nM

B4: TRU(S6)-1063 (Fc fusion)
VH: EVQLVESGGGLVQPGGSLRLSCAASGFTFNTYAMNWVRQAPGKGLEWVGRTVTKSNKYATYYADSVSDRFTISRDDSKNSLYLQMNSLKTEDTAVYYCAREDYYGTLDYWGQGTLVTVSS
VL: EIVLTQSPATLSLSPGERATLSCRASESVHNFGISFMNWYQQKPGQAPRLLIYTASNQGSGIPARFSGSGSGTDFTLTISSLEPEDFAVYYCHQGKEVPWTFGQGTKVEIK
notes: Humanized SMIP fusion protein (single chain)
Kd (Hyper-IL6 [5]): 0.05 nM | koff (Hyper-IL6 [5]): 0.00018 s⁻¹ | kon (Hyper-IL6 [5]): 3.6e+06 M⁻¹ s⁻¹ | Kd (recombinant human IL6 [6]): 0.051 nM | koff (recombinant human IL6 [6]): 0.00019 s⁻¹ | kon (recombinant human IL6 [6]): 3.9e+06 M⁻¹ s⁻¹

B5: TRU(S6)-1064 (Fc fusion)
VH: B4 VH
VL: DIVLTQSPASLAVSPGQRATITCRASESVHNFGISFMNWYQQKPGQPPKLLIYTASNQGSGVPARFSGSGSGTDFTLTINPVEANDTANYYCHQGKEVPWTFGQGTKVEIK
notes: as for B4
Kd (Hyper-IL6 [5]): 0.046 nM | koff (Hyper-IL6 [5]): 0.00019 s⁻¹ | kon (Hyper-IL6 [5]): 4.1e+06 M⁻¹ s⁻¹ | Kd (recombinant human IL6 [6]): 0.048 nM | koff (recombinant human IL6 [6]): 0.0002 s⁻¹ | kon (recombinant human IL6 [6]): 4.2e+06 M⁻¹ s⁻¹

B6: TRU(XT6)-1025 (Fc fusion)
chain: LPAQVAFTPYAPEPGSTCRLREYYDQTAQMCCSKCSPGQHAKVFCTKTSDTVCDSCEDSTYTQLWNWVPECLSCGSRCSSDQVETQACTREQNRICTCRPGWYCALSKQEGCRLCAPLRKCRPGFGVARPGTETSDVVCKPCAPGTFSNTTSSTDICRPHQICNVVAIPGNASMDAVCTSTSPTRSMAPGAVHLPQPVSTRSQHTQPTPEPSTAPSTSFLLPMGPSPPAEGSTGDTGEPKSSDKTHTCPPCPAPEAAGAPSVFLFPPKPKDTLMISRTPEVTCVVVDVSHEDPEVKFNWYVDGVEVHNAKTKPREEQYNSTYRVVSVLTVLHQDWLNGKAYACAVSNKALPAPIEKTISKAKGQPREPQVYTLPPSRDELTKNQVSLTCLVKGFYPSDIAVEWESNGQPENNYKTTPPVLDSDGSFFLYSKLTVDKSRWQQGNVFSCSVMHEALHNHYTQKSLSLSPGQRHNNSSLNTRTQKARHSPNSEVQLLESGGGLVQPGGSLRLSCAASGFTFSHYGMHWVRQAPGKGLEWVSSIYPGMTQYADSVKGRFTISRDNSKNTLYLQMNSLRAEDTAVYYCARDRGSGIDAFDIWGQGTMVTVSSGGGGSGGGGSGGGGSQSELTQPPSVSVSPGQTATVSCSGEKLGDRYAWWYQQKAGQSPVLVIYQDTKRPSGVPDRFSGSNSGTSASLVISGPQSEDEADYYCAAWDDSLKGVVFGGGSKLTVL
notes: as for B3
binding result (recombinant human IL6 [3]): no binding (tested: 100 nM) | Kd [4]: 25 nM | Kd (hu HIL6 AFH monomer): 6.3 nM

B7: AH-65 mAb (antibody, V domains shown)
VH: EVQLVESGGGLVQPKGTLRLSCAASGFSFNTYAMNWVRQAPGKSLEWVARTVTKSNKYATYYADSVSDRVTISREDSQSMLYLQMTNLKTEDTAMYYCVREDYYGTLDYWGQGTSVTVSS
VL: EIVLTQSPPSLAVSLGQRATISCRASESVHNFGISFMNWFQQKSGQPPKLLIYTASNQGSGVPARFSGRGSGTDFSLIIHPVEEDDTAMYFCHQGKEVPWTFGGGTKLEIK
Kd (recombinant human IL6 [1]): 0.007 nM | koff (recombinant human IL6 [1]): 2.2e-05 s⁻¹ | kon (recombinant human IL6 [1]): 3.2e+06 M⁻¹ s⁻¹ | Kd (Hyper-IL6 [2]): 0.012 nM | koff (Hyper-IL6 [2]): 2.4e-05 s⁻¹ | kon (Hyper-IL6 [2]): 2e+06 M⁻¹ s⁻¹

B8: TRU(XT6)-1029 (Fc fusion)
chain: LPAQVAFTPYAPEPGSTCRLREYYDQTAQMCCSKCSPGQHAKVFCTKTSDTVCDSCEDSTYTQLWNWVPECLSCGSRCSSDQVETQACTREQNRICTCRPGWYCALSKQEGCRLCAPLRKCRPGFGVARPGTETSDVVCKPCAPGTFSNTTSSTDICRPHQICNVVAIPGNASMDAVCTSTSPTRSMAPGAVHLPQPVSTRSQHTQPTPEPSTAPSTSFLLPMGPSPPAEGSTGDTGEPKSSDKTHTCPPCPAPEAAGAPSVFLFPPKPKDTLMISRTPEVTCVVVDVSHEDPEVKFNWYVDGVEVHNAKTKPREEQYNSTYRVVSVLTVLHQDWLNGKAYACAVSNKALPAPIEKTISKAKGQPREPQVYTLPPSRDELTKNQVSLTCLVKGFYPSDIAVEWESNGQPENNYKTTPPVLDSDGSFFLYSKLTVDKSRWQQGNVFSCSVMHEALHNHYTQKSLSLSPGQRHNNSSLNTRTQKARHSPNSEVQLLESGGGLVQPGGSLRLSCAASGFTFSSYWMHWVRQAPGKGLEWVSSIYPSGGSTEYADSVKGRFTISRDNSKNTLYLQMNSLRAEDTAVYYCAKGIWFDPWGQGTLVTVSSGGGGSGGGGSGGGGSQDIQMTQSPATLSASVGDRVTITCRSSQRISGYLNWYQQQPGKAPKLLIYAASTLQSGVPSRISGSGSGTDFSLIISSLQPEDVATYYCQQSYSPPFTFGQGTKVEIK
notes: as for B3
binding result (recombinant human IL6 [3]): no binding (tested: 100 nM) | binding result (sIL6R Fc dimer): no binding (tested: 100 nM) | Kd [4]: 49 nM | Kd (hu HIL6 AFH monomer): 3000 nM
